Target: the molecule itself
Experiment: SEC; Superdex 200 Increase 10/300 GL, 20 mM Tris-HCl pH 7.9, 500 mM NaCl; also series at 1, 5 and 15 mg ml^-1 protein and at four NaCl concentrations

B1: DREP3 CIDE domain (DNA fragmentation factor-related protein 3, residues Phe112-Asp195) (domain or fragment, Drosophila melanogaster, UniProt Q0E9B7 112-195, looked up)
chain: FAQLDNSKPFKIKDITRNIRKAVVATTLSELRTKVSLKFERAQPAIHLDCDGTEVDDEEYFSTLEPNAELIAVFPGEQWRDPSD
notes: DREP3 (DNA fragmentation factor-related protein 3), Drosophila melanogaster, UniProt Q0E9B7, CIDE domain, residues Phe112-Asp195; Cloned with NdeI and XhoI into pET-21a; The final model of PDB 7v6e holds residues 117-193; also called wild-type DREP3 CIDE domain; WT DREP3 CIDE domain; source: E. coli BL21 (DE3), purified (Ni-NTA, SEC)
binding result: binds

Source: PMC8647176, “Helical filament structure of the DREP3 CIDE domain reveals a unified mechanism of CIDE-domain assembly” (Acta Crystallographica. Section D, Structural Biology, 2021)
